From patent US20180155451A1 (published 2018)

B1: GpH7-B3 variant S337_09D/GpL16-k0 (antibody, human IgG1, kappa)
heavy: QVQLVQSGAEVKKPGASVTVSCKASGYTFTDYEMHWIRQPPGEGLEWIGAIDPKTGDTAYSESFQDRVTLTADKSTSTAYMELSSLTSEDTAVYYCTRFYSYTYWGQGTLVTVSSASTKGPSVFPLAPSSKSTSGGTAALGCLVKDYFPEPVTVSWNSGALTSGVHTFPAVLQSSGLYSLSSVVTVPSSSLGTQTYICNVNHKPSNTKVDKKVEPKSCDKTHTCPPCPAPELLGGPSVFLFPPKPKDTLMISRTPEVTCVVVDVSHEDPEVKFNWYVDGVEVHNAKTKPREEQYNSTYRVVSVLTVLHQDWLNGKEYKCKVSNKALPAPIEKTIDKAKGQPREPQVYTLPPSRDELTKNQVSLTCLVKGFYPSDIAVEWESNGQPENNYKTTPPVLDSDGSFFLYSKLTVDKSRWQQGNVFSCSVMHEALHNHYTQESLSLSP
light: DIVMTQSPLSLPVTPGEPASISCQASESLVHSNRNTYLHWYLQKPGQSPQLLIYKVSNRFSGVPDRFSGSGSGTDFTLKISRVEAEDVGVYYCSQNTHVPPTFGQGTKVEIERTVAAPSVFIFPPSDEQLKSGTASVVCLLNNFYPREAKVQWKVDNALQSGNSQESVTEQDSKDSTYSLSSTLTLSKADYEKHKVYACEVTHQGLSSPVTKSFNRGEC
notes: mutation in both H chains; also called Ho Ab S337_09D; S337D
B2: GpH7-B3 variant S337_10E/GpL16-k0 (antibody, human IgG1, kappa)
heavy: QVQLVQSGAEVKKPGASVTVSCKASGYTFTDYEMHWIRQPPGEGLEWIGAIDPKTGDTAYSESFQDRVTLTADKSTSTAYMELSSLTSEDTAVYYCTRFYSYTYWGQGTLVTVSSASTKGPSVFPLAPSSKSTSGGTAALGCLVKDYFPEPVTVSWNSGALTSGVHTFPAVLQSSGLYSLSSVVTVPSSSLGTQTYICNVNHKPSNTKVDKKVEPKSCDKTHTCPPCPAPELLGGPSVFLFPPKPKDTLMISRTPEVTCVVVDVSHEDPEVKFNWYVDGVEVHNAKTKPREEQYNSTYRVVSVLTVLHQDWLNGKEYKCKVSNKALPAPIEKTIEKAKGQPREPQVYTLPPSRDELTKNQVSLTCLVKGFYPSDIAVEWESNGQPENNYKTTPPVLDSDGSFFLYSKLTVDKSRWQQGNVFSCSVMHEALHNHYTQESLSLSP
light: DIVMTQSPLSLPVTPGEPASISCQASESLVHSNRNTYLHWYLQKPGQSPQLLIYKVSNRFSGVPDRFSGSGSGTDFTLKISRVEAEDVGVYYCSQNTHVPPTFGQGTKVEIERTVAAPSVFIFPPSDEQLKSGTASVVCLLNNFYPREAKVQWKVDNALQSGNSQESVTEQDSKDSTYSLSSTLTLSKADYEKHKVYACEVTHQGLSSPVTKSFNRGEC
notes: mutation in both H chains; also called Ho Ab S337_10E; S337E
B3: GpH7-B3 variant S337_12R/GpL16-k0 (antibody, human IgG1, kappa)
heavy: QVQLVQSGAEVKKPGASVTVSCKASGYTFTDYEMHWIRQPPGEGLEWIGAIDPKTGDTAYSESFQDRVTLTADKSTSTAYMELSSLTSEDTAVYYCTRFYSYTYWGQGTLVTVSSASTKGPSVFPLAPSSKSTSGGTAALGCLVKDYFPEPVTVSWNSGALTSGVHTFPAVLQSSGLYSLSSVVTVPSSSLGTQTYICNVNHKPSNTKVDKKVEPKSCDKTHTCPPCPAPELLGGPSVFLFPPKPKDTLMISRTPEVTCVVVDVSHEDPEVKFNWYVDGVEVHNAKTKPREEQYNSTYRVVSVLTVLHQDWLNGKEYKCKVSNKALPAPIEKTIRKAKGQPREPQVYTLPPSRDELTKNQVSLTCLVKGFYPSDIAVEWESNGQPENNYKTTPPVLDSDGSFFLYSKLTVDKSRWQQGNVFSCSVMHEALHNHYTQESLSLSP
light: DIVMTQSPLSLPVTPGEPASISCQASESLVHSNRNTYLHWYLQKPGQSPQLLIYKVSNRFSGVPDRFSGSGSGTDFTLKISRVEAEDVGVYYCSQNTHVPPTFGQGTKVEIERTVAAPSVFIFPPSDEQLKSGTASVVCLLNNFYPREAKVQWKVDNALQSGNSQESVTEQDSKDSTYSLSSTLTLSKADYEKHKVYACEVTHQGLSSPVTKSFNRGEC
notes: mutation in both H chains; also called Ho Ab S337_12R; S337R
B4: GpH7-B3 variant S337_15Y/GpL16-k0 (antibody, human IgG1, kappa)
heavy: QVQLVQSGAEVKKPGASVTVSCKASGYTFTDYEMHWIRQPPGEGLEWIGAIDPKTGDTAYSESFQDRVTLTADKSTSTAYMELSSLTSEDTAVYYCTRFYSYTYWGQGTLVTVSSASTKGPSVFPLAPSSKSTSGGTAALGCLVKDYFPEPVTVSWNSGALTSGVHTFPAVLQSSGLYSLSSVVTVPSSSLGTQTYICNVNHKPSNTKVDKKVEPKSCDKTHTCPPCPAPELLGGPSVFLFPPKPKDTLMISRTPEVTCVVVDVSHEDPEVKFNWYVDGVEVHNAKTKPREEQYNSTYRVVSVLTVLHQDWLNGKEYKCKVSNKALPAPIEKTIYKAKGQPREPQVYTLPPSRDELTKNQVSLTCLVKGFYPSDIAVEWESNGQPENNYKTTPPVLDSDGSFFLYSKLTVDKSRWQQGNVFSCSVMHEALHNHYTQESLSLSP
light: DIVMTQSPLSLPVTPGEPASISCQASESLVHSNRNTYLHWYLQKPGQSPQLLIYKVSNRFSGVPDRFSGSGSGTDFTLKISRVEAEDVGVYYCSQNTHVPPTFGQGTKVEIERTVAAPSVFIFPPSDEQLKSGTASVVCLLNNFYPREAKVQWKVDNALQSGNSQESVTEQDSKDSTYSLSSTLTLSKADYEKHKVYACEVTHQGLSSPVTKSFNRGEC
notes: mutation in both H chains; also called Ho Ab S337_15Y; S337Y
B5: GpH7-B3 variant S337_19Q/GpL16-k0 (antibody, human IgG1, kappa)
heavy: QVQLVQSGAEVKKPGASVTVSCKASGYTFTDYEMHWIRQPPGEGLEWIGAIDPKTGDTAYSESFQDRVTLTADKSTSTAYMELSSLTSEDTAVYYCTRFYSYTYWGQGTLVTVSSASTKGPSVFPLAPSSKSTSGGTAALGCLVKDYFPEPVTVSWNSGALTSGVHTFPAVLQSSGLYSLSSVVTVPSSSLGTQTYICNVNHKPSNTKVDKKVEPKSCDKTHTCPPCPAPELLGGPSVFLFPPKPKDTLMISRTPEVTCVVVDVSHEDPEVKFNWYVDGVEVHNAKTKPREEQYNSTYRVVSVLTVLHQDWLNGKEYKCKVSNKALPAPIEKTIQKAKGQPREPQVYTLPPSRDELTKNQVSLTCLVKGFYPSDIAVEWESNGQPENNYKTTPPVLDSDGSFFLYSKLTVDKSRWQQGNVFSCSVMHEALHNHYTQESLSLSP
light: DIVMTQSPLSLPVTPGEPASISCQASESLVHSNRNTYLHWYLQKPGQSPQLLIYKVSNRFSGVPDRFSGSGSGTDFTLKISRVEAEDVGVYYCSQNTHVPPTFGQGTKVEIERTVAAPSVFIFPPSDEQLKSGTASVVCLLNNFYPREAKVQWKVDNALQSGNSQESVTEQDSKDSTYSLSSTLTLSKADYEKHKVYACEVTHQGLSSPVTKSFNRGEC
notes: mutation in both H chains; also called Ho Ab S337_19Q; S337Q
B6: GpH7-B3 variant S337_20W/GpL16-k0 (antibody, human IgG1, kappa)
heavy: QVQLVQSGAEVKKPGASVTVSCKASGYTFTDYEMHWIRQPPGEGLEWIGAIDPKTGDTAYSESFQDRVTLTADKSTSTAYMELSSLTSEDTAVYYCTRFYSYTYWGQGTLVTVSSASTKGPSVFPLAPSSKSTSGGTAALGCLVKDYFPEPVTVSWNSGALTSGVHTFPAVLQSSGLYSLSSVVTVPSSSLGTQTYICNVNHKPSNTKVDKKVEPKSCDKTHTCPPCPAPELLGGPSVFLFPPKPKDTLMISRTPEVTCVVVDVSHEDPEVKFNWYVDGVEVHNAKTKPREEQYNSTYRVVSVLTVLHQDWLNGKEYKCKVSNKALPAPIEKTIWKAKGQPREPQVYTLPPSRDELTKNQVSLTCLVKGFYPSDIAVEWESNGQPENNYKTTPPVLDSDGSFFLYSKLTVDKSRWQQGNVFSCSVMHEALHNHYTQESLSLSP
light: DIVMTQSPLSLPVTPGEPASISCQASESLVHSNRNTYLHWYLQKPGQSPQLLIYKVSNRFSGVPDRFSGSGSGTDFTLKISRVEAEDVGVYYCSQNTHVPPTFGQGTKVEIERTVAAPSVFIFPPSDEQLKSGTASVVCLLNNFYPREAKVQWKVDNALQSGNSQESVTEQDSKDSTYSLSSTLTLSKADYEKHKVYACEVTHQGLSSPVTKSFNRGEC
notes: mutation in both H chains; also called Ho Ab S337_20W; S337W
B7: GpH7-B3 variant T335_04F/GpL16-k0 (antibody, human IgG1, kappa)
heavy: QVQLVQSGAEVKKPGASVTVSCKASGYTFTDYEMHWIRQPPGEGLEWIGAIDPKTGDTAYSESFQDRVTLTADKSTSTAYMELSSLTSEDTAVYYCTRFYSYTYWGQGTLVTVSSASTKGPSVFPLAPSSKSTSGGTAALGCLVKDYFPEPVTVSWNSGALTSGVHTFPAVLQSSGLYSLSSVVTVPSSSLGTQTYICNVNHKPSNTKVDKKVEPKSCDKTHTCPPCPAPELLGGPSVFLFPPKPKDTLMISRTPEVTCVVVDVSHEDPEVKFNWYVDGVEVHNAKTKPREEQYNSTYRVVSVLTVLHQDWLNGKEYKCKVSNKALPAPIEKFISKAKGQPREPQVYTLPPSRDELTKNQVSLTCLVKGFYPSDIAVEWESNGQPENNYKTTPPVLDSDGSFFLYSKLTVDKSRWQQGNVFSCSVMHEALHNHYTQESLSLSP
light: DIVMTQSPLSLPVTPGEPASISCQASESLVHSNRNTYLHWYLQKPGQSPQLLIYKVSNRFSGVPDRFSGSGSGTDFTLKISRVEAEDVGVYYCSQNTHVPPTFGQGTKVEIERTVAAPSVFIFPPSDEQLKSGTASVVCLLNNFYPREAKVQWKVDNALQSGNSQESVTEQDSKDSTYSLSSTLTLSKADYEKHKVYACEVTHQGLSSPVTKSFNRGEC
notes: mutation in both H chains; also called Ho Ab T335_04F; T335F
B8: GpH7-B3 variant T335_05P/GpL16-k0 (antibody, human IgG1, kappa)
heavy: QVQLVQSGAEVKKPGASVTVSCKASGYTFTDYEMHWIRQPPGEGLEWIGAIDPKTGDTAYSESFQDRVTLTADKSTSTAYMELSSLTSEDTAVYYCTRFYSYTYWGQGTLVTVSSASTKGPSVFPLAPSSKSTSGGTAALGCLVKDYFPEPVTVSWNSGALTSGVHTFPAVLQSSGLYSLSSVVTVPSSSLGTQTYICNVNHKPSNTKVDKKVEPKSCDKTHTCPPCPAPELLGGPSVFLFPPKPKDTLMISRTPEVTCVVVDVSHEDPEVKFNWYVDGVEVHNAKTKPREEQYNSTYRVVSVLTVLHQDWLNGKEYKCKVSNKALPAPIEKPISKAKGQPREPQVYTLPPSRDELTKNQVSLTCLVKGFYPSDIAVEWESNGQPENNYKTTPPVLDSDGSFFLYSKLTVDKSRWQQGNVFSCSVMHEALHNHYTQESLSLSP
light: DIVMTQSPLSLPVTPGEPASISCQASESLVHSNRNTYLHWYLQKPGQSPQLLIYKVSNRFSGVPDRFSGSGSGTDFTLKISRVEAEDVGVYYCSQNTHVPPTFGQGTKVEIERTVAAPSVFIFPPSDEQLKSGTASVVCLLNNFYPREAKVQWKVDNALQSGNSQESVTEQDSKDSTYSLSSTLTLSKADYEKHKVYACEVTHQGLSSPVTKSFNRGEC
notes: mutation in both H chains; also called Ho Ab T335_05P; T335P
B9: GpH7-B3 variant T335_06M/GpL16-k0 (antibody, human IgG1, kappa)
heavy: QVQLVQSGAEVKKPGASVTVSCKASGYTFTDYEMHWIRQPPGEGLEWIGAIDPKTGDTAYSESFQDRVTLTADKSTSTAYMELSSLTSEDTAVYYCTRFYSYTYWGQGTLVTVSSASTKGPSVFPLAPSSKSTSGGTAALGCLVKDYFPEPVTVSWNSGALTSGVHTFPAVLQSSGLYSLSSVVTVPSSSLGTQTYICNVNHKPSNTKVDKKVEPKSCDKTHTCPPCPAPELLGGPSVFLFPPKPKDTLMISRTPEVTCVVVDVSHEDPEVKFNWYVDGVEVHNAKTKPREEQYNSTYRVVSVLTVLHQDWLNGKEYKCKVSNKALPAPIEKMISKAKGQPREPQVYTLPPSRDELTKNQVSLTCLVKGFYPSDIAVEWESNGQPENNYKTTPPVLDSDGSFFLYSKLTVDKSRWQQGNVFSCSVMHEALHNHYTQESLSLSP
light: DIVMTQSPLSLPVTPGEPASISCQASESLVHSNRNTYLHWYLQKPGQSPQLLIYKVSNRFSGVPDRFSGSGSGTDFTLKISRVEAEDVGVYYCSQNTHVPPTFGQGTKVEIERTVAAPSVFIFPPSDEQLKSGTASVVCLLNNFYPREAKVQWKVDNALQSGNSQESVTEQDSKDSTYSLSSTLTLSKADYEKHKVYACEVTHQGLSSPVTKSFNRGEC
notes: mutation in both H chains; also called Ho Ab T335_06M; T335M
B10: GpH7-B3 variant T335_07I/GpL16-k0 (antibody, human IgG1, kappa)
heavy: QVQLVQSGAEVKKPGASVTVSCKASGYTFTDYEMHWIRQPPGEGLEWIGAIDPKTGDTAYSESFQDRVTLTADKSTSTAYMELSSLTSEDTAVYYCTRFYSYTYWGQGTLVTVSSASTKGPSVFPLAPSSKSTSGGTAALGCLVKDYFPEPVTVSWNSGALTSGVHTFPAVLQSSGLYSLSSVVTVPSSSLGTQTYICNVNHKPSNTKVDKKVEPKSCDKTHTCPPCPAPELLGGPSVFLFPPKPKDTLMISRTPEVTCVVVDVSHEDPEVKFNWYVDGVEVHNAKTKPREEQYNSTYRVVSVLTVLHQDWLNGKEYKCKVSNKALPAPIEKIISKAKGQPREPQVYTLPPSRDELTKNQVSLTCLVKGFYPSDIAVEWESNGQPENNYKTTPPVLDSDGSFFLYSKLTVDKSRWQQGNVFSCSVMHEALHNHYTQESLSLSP
light: DIVMTQSPLSLPVTPGEPASISCQASESLVHSNRNTYLHWYLQKPGQSPQLLIYKVSNRFSGVPDRFSGSGSGTDFTLKISRVEAEDVGVYYCSQNTHVPPTFGQGTKVEIERTVAAPSVFIFPPSDEQLKSGTASVVCLLNNFYPREAKVQWKVDNALQSGNSQESVTEQDSKDSTYSLSSTLTLSKADYEKHKVYACEVTHQGLSSPVTKSFNRGEC
notes: mutation in both H chains; also called Ho Ab T335_07I; T335I
B11: GpH7-B3 variant T335_08L/GpL16-k0 (antibody, human IgG1, kappa)
heavy: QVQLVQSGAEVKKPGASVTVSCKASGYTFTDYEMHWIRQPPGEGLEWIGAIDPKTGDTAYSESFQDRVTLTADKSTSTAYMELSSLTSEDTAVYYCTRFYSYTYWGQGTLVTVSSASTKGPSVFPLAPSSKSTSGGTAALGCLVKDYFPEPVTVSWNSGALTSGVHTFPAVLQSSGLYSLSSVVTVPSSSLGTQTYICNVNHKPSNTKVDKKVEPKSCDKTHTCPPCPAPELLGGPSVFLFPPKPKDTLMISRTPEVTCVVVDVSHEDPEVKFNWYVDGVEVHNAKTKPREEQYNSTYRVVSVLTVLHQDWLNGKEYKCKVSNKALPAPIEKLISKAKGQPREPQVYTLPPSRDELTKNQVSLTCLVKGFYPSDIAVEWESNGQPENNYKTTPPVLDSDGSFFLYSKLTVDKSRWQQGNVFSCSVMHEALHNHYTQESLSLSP
light: DIVMTQSPLSLPVTPGEPASISCQASESLVHSNRNTYLHWYLQKPGQSPQLLIYKVSNRFSGVPDRFSGSGSGTDFTLKISRVEAEDVGVYYCSQNTHVPPTFGQGTKVEIERTVAAPSVFIFPPSDEQLKSGTASVVCLLNNFYPREAKVQWKVDNALQSGNSQESVTEQDSKDSTYSLSSTLTLSKADYEKHKVYACEVTHQGLSSPVTKSFNRGEC
notes: mutation in both H chains; also called Ho Ab T335_08L; T335L

biological target: T1, FcγRIa extracellular domain with C-terminal His tag (human, UniProt P12314 16-292); test: SPR Biacore, relative FcγRIa binding vs GpH7-B3/GpL16-k0
T1 construct: extracellular domain; also called FcgRI; CD64; not shown: His tag at the C terminus
T1 sequence (P12314 16-292): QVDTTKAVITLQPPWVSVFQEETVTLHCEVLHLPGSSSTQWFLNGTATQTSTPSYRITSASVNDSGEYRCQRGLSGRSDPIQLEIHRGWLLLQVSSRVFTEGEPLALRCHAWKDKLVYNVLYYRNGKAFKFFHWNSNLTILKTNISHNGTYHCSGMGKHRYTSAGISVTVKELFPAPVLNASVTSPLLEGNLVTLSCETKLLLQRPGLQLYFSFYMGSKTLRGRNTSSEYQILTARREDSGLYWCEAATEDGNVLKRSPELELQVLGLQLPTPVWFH

First: B1
Second: B2
The Ho/Con_1a of the first is higher: 106 % of HoCon Ab (=100) for the first, 104 % of HoCon Ab (=100) for the second.

First: B3
Second: B4
The Ho/Con_1a of the first is higher: 105 % of HoCon Ab (=100) for the first, 104 % of HoCon Ab (=100) for the second.

First: B5
Second: B6
The Ho/Con_1a of the first is higher: 105 % of HoCon Ab (=100) for the first, 104 % of HoCon Ab (=100) for the second.

First: B7
Second: B8
The Ho/Con_1a of the first is lower: 105 % of HoCon Ab (=100) for the first, 106 % of HoCon Ab (=100) for the second.

Going from B9 to B10, the Ho/Con_1a falls from 106 % of HoCon Ab (=100) to 105 % of HoCon Ab (=100).

For B11, the Ho/Con_1a was 105 % of HoCon Ab (=100).
